Patent US20160032279 (published 2016)
Like-named read-outs stand apart in the source and are kept apart here. No end group written: not given here.

What was measured:
Streptavidin [1] = biological target: T1, Streptavidin (Streptomyces avidinii, UniProt P22629); assay: FACS
Streptavidin [2] = biological target: T1, Streptavidin; assay: FACS; remark: listed apart in the source

T1 sequence (P22629 37-163): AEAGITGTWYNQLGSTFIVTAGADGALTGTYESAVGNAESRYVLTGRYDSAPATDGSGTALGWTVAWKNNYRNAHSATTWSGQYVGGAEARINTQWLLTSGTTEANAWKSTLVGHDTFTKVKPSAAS

## RLEICQNVCYYLGTL (cysteine pairing not given here; also: phycoerythrin conjugate) [SA-1]
Streptavidin [1]
  Kd: 10 nM

## ICSYVMYTTCFLRVY (cysteine pairing not given here; also: phycoerythrin conjugate) [SA-2]
Streptavidin [1]
  Kd: 8 nM

## TVLICMNICWTGETQ (cysteine pairing not given here; also: phycoerythrin conjugate) [SA-3]
Streptavidin [1]
  Kd: 4 nM
Streptavidin [2]
  Kd: 4 nM
